Results reported in the DeepSol protein solubility set.

assay: soluble on expression in E. coli; label from the status in PepcDB or PDB records

| Sequence | soluble on expression in E. coli |
| --- | --- |
| MAFEKIIQLKNCRYDYTLSPSVKKFTLKDNTFFETKVGNYELTRLLEKVPNSGEGFQLKIIINKELTGAKINITDKFGLRLVDIFKSEDHHIHQEKFYFLMDSLVERGVFTKSER | not soluble |
| MAFKLPNLPYAYDALEPYIDQRTMEFHHDKHHNTYVTKLNATVEGTELEHQSLADMIANLDKVPEAMRMSVRNNGGGHFNHSLFWEILSPNSEEKGGVIDDIKAQWGTLDEFKNEFANKATTLFGSGWTWLVVNDGKLEIVTTPNQDNPLTEGKTPILLFDVWEHAYYLKYQNKRPDYMTAFWNIVNWKKVDELYQAAK | not soluble |
| MAFRMSRDHADFVAHGGTEWDDGAFVNVKKIKIFHDWAGITLVQFDYIDGTGAIVSGLDHGTEPFQFDREHGRVPVEGARAEFWLRDDEYITIVTAFGGYCVRKIEFITNKRTFDFGGFN | soluble |
| MAFSVAYDLIPNKLIKDIDEMNQWLHDKINRAVYLVGFATQQSDYEYKLYELFKALDELEERLKKQLFLFGNQLTESDLYLLATLERFDNIYFCLFKCSLKRIADYPALFRYHNQLRGMESLASTYQPVLTKEHYFMSTMHVLGLEHHHHHH | not soluble |
| MAFTESDVYNNEAFFKQYMKRRYRENSPNELIEKPAFFQLIGDVKGKKILDLGCGDAIFGKELLEKDCHSYTGIEGSELMYEKAKKQLENKNGIVHFLNLKDYTYPPATFDLVTSRLALHYIEHLPIIFQNVYETLKTNGTFTFSVQHPVITSSFESLQTSGKRTSWLVDDYFKTGKRVEPWIDQKVIKYHRTTEEYFTLLQQAGFTITNLKEATPNQTYFQSAEEYERRLRIPLFLLFSCRKLEHHHHHH | soluble |
| MAGAITHDHAAAAQGRQGGPLIVTEDVELLDDLLRLCAAAGARPEVHHTVPDGRGTWEAAPLVLVGDDAARRVRGAARRRGVVLVGRDQDDSGVWRRAVEIGADHVLLLPDGEQWLVDRIADVAEGVGRPALTVGVIGGRGGAGASTLACALAVTSARQGRRTLLVDADPLGGGLDVLLGGETAEGLRWPAFAASRGRVGGGALEESLPELHALRVLSWDRGDAVAVPPQAVRAVLAAARRRGGAVVVDLPRRVDEGAAEALAQVDLGVLVVPAELRAIAAAARVASAAGMVLGDLRVAVRGPYAPGLDDREVARLLGLPLLGEVPAEPPVPDGGVPPGGAARGPLARFCAVFWDRALVEAGGVLEHHHHHH | not soluble |
| MAGAMRKMAVYLGLVEDDGYDGRGFDPDDDFEPELDPEPERDHRRHEPAHQSHGAHQSQRDEEVRVVQPPAQREPMPRAASLAAESSRPARIAPVASITQERASLEKSAPVIMPKVVSEREPYRITTLHPRTYNEARTIGEHFREGTPVIMNLTEMDDTDAKRLVDFAAGLVFGLHGSIERVTQKVFLLSPANVDVTAEDKARIAEGGFFNQSLEHHHHHH | not soluble |
| MAGDGSLVASFGDIDRATTVTTIVAGVGSSNPEGWNTYVDRARTVSASTGSATVLWLGYQAPASIPAAVSGAAANRAAADLQRFQAALQSRNPHQRKVVMGYSYGSTVVGKAASSGELSADALVLVGSPGAGVSHSSQLGAPVYAVTGSADPIGFAGTQYDGIHGTDPTAALFGATVWDSPSTHSGYWNDQEFLGNVAEVVRGKLEHHHHHH | not soluble |
| MAGDKGGGDGERRLRQPIVVVLGHVDHGKTTLLDKIRRTAVAAKEAGGITQHIGASIVPADVIEKIAEPLKKVIPVKLVIPGLLFIDTPGHELFSNLRRRGGSVADFAILVVDIMEGFKPQTYEALELLKERRVPFLIAANKIDRIPGWKPNPDAPFIETIRRQDPKVREILEQRVYEIVGKMYEAGLPAELFTRIKDFRRKIAIVPVSARTGEGIPELLAVLAGLTQTYLKERLRYAEGPAKGVVLEVKEMQGFGTVVDAVIYDGVLKKEDIIVVGGREGPIVTRVRALLMPAPLQDIRSREARFVQVDRVYAAAGVRIAAPGLDDVIAGSPIYAAESEEEARKLMEAVQREIEELRFRTENIGVVVKADTLGTLEALVEALRRRGVPVRLADIGPVSRSDVLDAAVTRKIDPYLGVVLAFNVKVLPEAEEEASRAGVKIFRESMIYKLIEDYEEWVKKEKEAERLKALNSLIRPGKFRILPGYVFRRSDPAIVGVEVLGGVIRPGYPVMDSQGRELGRIMAIKDRDRSLEEARLGAAVAVSIQGRILIGRHANEGDILYTNVPAQHAYKILTEFKDLVSKDELDVLREIAEIKRRAADHEYNKVLLRLKIKRVSQ | soluble |
| MAGDPMLTAPPKEAARPTLMPRAQSYKDLTHLPAPTGKIFVSVYNIQDETGQFKPYPASNFSTAVPQSATAMLVTALKDSRWFIPLERQGLQNLLNERKIIRAAQENGTVAINNRIPLQSLTAANIMVEGSIIGYESNVKSGGVGARYFGIGADTQYQLDQIAVNLRVVNVSTGEILSSVNTSKTILSYEVQAGVFRFIDYQRLLEGEVGYTSNEPVMLCLMSAIETGVIFLINDGIDRGLWDLQNKAERQNDILVKYRHMSVPPESLEHHHHHH | not soluble |
| MAGDPMYHSRPIFNIIDSSNIQDRRELKLVLRHTEIAYRSFAQEDLIPAQRSWMNSIINTDVPIDPAIDEVVKRFCEVACLPGPAGIPLNIILNDSLTYVYCSFQAMRKYAHKRFYDGVSDEGVVISTVPPYAEGITKETMRSWHNNVCQNTSNETHDLDAYIAFLPTSLQNPSFSHMKIGCDSFLAPSRVDPFCVEIIAVGKALFHDNGLKKNPRCGGQWLPPSCLEHHHHHH | not soluble |
| MAGHSIPHFQNDGGHSVIEIGVKEFMCTGASVPFDHPHIFIDMGDDNEKVCSYCSTLYRYNPSLKAEQTNPPGCVFHVKAA | not soluble |
| MAGKQITLASLPIGKKARVKSLTLDGTIRRRIMDLGLVSDTIVEALQKSPSGDPTAYHIRGAVIALRSEEASKIMVEVN | not soluble |
| MAGNFWQSSHYLQWILDKQDLLKERQKDLKFLSEEEYWKLQIFFTNVIQALGEHLKLRQQVIATATVYFKRFYARYSLKSIDPVLMAPTCVFLASKVEEFGVVSNTRLIAAATSVLKTRFSYAFPKEFPYRMNHILECEFYLLELMDCCLIVYHPYRPLLQYVQDMGQEDMLLPLAWRIVNDTYRTDLCLLYPPFMIALACLHVACVVQQKDARQWFAELSVDMEKILEIIRVILKLYEQWKNFDERKEMATILSKMPKPKPPPNSEGEQGPNGSQNSSYSQS | soluble |
| MAGPLSGLRVVELAGIGPGPHAAMILGDLGADVVRIDRPSSVDGISRDAMLRNRRIVTADLKSDQGLELALKLIAKADVLIEGYRPGVTERLGLGPEECAKVNDRLIYARMTGWGQTGPRSQQAGHDINYISLNGILHAIGRGDERPVPPLNLVGDFGGGSMFLLVGILAALWERQSSGKGQVVDAAMVDGSSVLIQMMWAMRATGMWTDTRGANMLDGGAPYYDTYECADGRYVAVGAIEPQFYAAMLAGLGLDAAELPPQNDRARWPELRALLTEAFASHDRDHWGAVFANSDACVTPVLAFGEVHNEPHIIERNTFYEANGGWQPMPAPRFSRTASSQPRPPAATIDIEAVLTDWDG | soluble |
| MAHAGRTGYDNREIVMKYIHYKLSQRGYEWDAGDDVEENRTEAPEGTESEVVHLTLRQAGDDFSRRYRRDFAEMSSQLHLTPFTARGRFATVVEELFRDGVNWGRIVAFFEFGGVMCVESVNREMSPLVDNIALWMTEYLNRHLHTWIQDNGGWDAFVELYGPSMR | soluble |
| MAHHHHHHGICSSAPTLGEIWKRKLNQLDAKEFMAYRRRFVVEVDRNEAREALAKGKTNTGHAVSRGTAKLAWIDERGGVELKGTVVDLGCGRGSWSYYAASQPNVREVKAYTLGTSGHEKPRLVETFGWNLITFKSKVDVTKMEPFQADTVLCDIGESNPTAAVEASRTLTVLNVISRWLEYNQGCGFCVKVLNPYSCDVLEALMKMQARFGGGLIRVPLSRNSTHEMYFVSGIKNNIMGNVTAVSRQLLKRMEEQGGERVVPDYKFSTGTRSNL | soluble |
| MAHHHHHHMAANCIFCKIIKGDIPCAKVAETSKALAFMDINPLSRGHMLVIPKEHASCLHELGMEDAADVGVLLAKASRAVAGPDGSMQYNVLQNNGSLAHQEVPHVHFHIIPKTDEKTGLKIGWDTVKVASDELAEDAKRYSEAIAKI | soluble |
| MAHHHHHHMADSIKSSNSFQKLDNIDAKETSTVDRKWVALTAYQPVDVVTKTVEVPIIKTVEKYVPKTIIQEKIIHVPKNVTHIVEKIVEVPEVKYIEKIVEVPHIHYKNKYVPKIEIVEKVVERQKIIEKWHDKIVEVPQIKEVVRFKQIEDSEEIIKYVPRNSKNIDWEDEYKKYTESKGLQRYSLDQNNIYQQANSFNQFNENAYNQNAFNRSYELLNKQSSVKSQNNASGENFSQMNFYNQYSGANFEQERSIQASNFEPSGSMQLKRLSSEEIKPAGCCSAACT | soluble |
| MAHHHHHHMAITLPKLKYALNALSPHISEETLSFHYNKHHAGYVNKLNGLIKDTPLANKSLTDILKESTGAIFNNAAQIWNHSFYWDSMGPNCGGEPHGEIKEKIQEDFGSFNNFKDQFSNVLCGHFGSGWGWLALNKNNKLVILQTHDAGNPIKENTGIPILTCDVWEHAYYIDYRNDRLSYVKAWWNLVNWNFANENLKNALNK | soluble |
| MAHHHHHHMALISQSFAERYAELVARVPTHTELLLDVQRREVGERKALEEMCQVAFQDVLHVAGVMIADKKALGRGALAHRNRFEVALYKKQTAVWFQAAPPRKVALPTTRPLHGFPHAAFAELCQEERELRQWHYGVERRLREHIEEACGRAWFFLNVINETARSESLSRQRLQHEEDEDFTAIKQSFFRAVPADYYRNVVIARYGQTISAIEQAKDLTFEELEEKVRAALMEEEEASWRSAYQYLQDMYDAQLFALNHREVLGRYELEEEERNTLFPLILQCCREDFGIVFYHIPALALHFNSSQPCLRALCVAQLQEAPRRMAATRSRFSWIPAFDLAGMASELGLEEDGDEIEDSAEGETQEAEGSTDGGDDLHNALPPPVDDMPPINTASTMVFEPEVGSSKVPEPETKREEAEVDTSQSAVVALAQRTHEESVLATEMEEHVPVSCAGEENE | soluble |
| MAHHHHHHMAQAIRDAFTEEASLTVVEEWSSKVVSDLEARATNAHHARQGVLVKPYTADAAETVPVTIVASLREFQGQLYDIYRAAETIRTVIACRIPELKAEDNLGVEVQMTVLKMIDSLEGKLLGSSSGDKEGGAPGVAGMYAAREYLAARGSVEDKVLGKVSDDDKKTKSAAPSVLMELQQIDADALLKLELSATQISTQIRSFINAYAVNWKKLIQPRTNASEKSIS | soluble |
| MAHHHHHHMAVENMLGKLKQNPGDYYNSVSALFFHRPYNMMPIQAMSFLYVRGLARATSAEHKKYFEELCSKAKVEPAAVQTELDVIPDYFGMIESGQEPKDVFGATNKVAKAVRADKDFSSLLSRKMSLGSSAMANFGNLYTASLPCWIAAGLEEAYNKKQDITNHPMVMVGYGSGDASEAIPIVPVKGWEEAASKINVAAALEKPVNLTREQYEGMHNGSLKSDLAAGNRQKEFVVAHIGSRNDMAFQDIGIEYYQFVH | not soluble |
| MAHHHHHHMCATSKENTPEFYKKYVKDIIDRIEDNARREFEAIWRDHESHPGMSKTLISDTLSEKNVKVRANILASDVFKNKKLVRYILFHYTPKTLLEVVPVDELMNRVPIAYQHAICAMWLASEYVYSTGIDSNEFDFFSFMSAHIERASAMAKEQSR | soluble |
| MAHHHHHHMCGSCWAFAAIGNIEGQWFLAGNPLTRLSEQMLVSCDNTNSGCGGGSSLKAFKWIVDRNNGAVYTEESYPYHSCIGIKLPCTTSGHTVGATITGHVELPQDEAQIAAWLAVNGPVAVVVDASSWIFYTGGVLTNCVSKKLDHAVLLVGYNDSATAPYWIIKNSWTTQWGEDGYIRIAKGSNQCLVKEEASSAVVGGPGATPEPTTTTTTSAPGPSPSCFVQMSCTDAACIVGCENVTLPTGQCLLTTSGASAIVTCGAETLTEEVFLTSTHCSGPSVRSSVPLNKCNRLLRGSVEFFRGSSSSGRLADVDRQRRYQPYHSRHRRL | soluble |
